Test results reported in patent US20260167699A1 (Chugai, published 2026).

T1: FcγRIIb (human, UniProt P31994 43-217)
T1 construct: extracellular domain; also called 2b
T1 sequence: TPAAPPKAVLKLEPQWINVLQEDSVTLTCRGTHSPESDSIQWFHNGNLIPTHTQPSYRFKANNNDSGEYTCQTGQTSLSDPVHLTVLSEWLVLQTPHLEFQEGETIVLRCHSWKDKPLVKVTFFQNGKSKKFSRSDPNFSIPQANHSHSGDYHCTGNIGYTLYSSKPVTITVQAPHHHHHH

T2: FcγRIIa(R) (human, UniProt P12318 34-217)
T2 construct: extracellular domain; also called 2aR
T2 sequence: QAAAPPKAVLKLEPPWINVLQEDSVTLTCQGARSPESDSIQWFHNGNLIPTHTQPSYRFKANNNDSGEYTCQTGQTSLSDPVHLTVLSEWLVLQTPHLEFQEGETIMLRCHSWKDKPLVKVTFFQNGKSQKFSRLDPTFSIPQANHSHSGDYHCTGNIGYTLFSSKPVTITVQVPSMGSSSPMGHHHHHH

T3: FcγRIIa(H) (human, UniProt P12318 34-217)
T3 construct: extracellular domain; also called 2aH
T3 sequence: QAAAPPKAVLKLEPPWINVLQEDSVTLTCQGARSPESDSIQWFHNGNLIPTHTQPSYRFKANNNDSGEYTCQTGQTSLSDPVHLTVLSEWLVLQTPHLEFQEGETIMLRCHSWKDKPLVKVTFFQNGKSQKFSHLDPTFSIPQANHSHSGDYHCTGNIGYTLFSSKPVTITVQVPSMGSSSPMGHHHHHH


What was measured:
Assay in all cases: SPR, relative to GpH7-A5/GpH7-B3/GpL16-k0 =100
FcγRIIb = target: T1, FcγRIIb
FcγRIa = target: T4, FcγRIa (human, UniProt P12314 16-292)
T4 construct: extracellular domain; also called 1a

FcγRIIa(R) = target: T2, FcγRIIa(R)
FcγRIIa(H) = target: T3, FcγRIIa(H)

T4 sequence (P12314 other isoform, or with tags, fused parts or gaps): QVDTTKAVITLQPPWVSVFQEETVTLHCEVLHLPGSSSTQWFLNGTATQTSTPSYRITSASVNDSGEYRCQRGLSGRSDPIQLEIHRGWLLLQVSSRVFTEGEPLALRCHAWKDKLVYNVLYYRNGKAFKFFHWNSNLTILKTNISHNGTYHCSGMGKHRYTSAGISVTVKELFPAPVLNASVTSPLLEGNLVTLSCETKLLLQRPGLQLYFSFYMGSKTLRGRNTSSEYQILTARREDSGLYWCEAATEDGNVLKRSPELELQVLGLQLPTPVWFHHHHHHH

Binder | He/Con 2b (FcγRIIb) [%] | He/Con 1a (FcγRIa) [%] | He/Con 2aR (FcγRIIa(R)) [%] | He/Con 2aH (FcγRIIa(H)) [%]
GpH7-A5/GpH7-B3 variant K326_20W/GpL16-k0 (antibody, human IgG1, kappa, He Ab: heterodimerized IgG1, one H chain mutated) heavy 1: not shown heavy 2: not shown light: DIVMTQSPLSLPVTPGEPASISCQASESLVHSNRNTYLHWYLQKPGQSPQLLIYKVSNRFSGVPDRFSGSGSGTDFTLKISRVEAEDVGVYYCSQNTHVPPTFGQGTKVEIERTVAAPSVFIFPPSDEQLKSGTASVVCLLNNFYPREAKVQWKVDNALQSGNSQESVTEQDSKDSTYSLSSTLTLSKADYEKHKVYACEVTHQGLSSPVTKSFNRGEC | 166 | 108 | 125 | 86.7
GpH7-A5/GpH7-B3 variant L328_04F/GpL16-k0 (antibody, human IgG1, kappa, He Ab: heterodimerized IgG1, one H chain mutated) heavy 1: not shown heavy 2: not shown light: DIVMTQSPLSLPVTPGEPASISCQASESLVHSNRNTYLHWYLQKPGQSPQLLIYKVSNRFSGVPDRFSGSGSGTDFTLKISRVEAEDVGVYYCSQNTHVPPTFGQGTKVEIERTVAAPSVFIFPPSDEQLKSGTASVVCLLNNFYPREAKVQWKVDNALQSGNSQESVTEQDSKDSTYSLSSTLTLSKADYEKHKVYACEVTHQGLSSPVTKSFNRGEC | 273 | 100 | 177 | 84.9
GpH7-A5/GpH7-B3 variant N325_09D/GpL16-k0 (antibody, human IgG1, kappa, He Ab: heterodimerized IgG1, one H chain mutated) heavy 1: not shown heavy 2: not shown light: DIVMTQSPLSLPVTPGEPASISCQASESLVHSNRNTYLHWYLQKPGQSPQLLIYKVSNRFSGVPDRFSGSGSGTDFTLKISRVEAEDVGVYYCSQNTHVPPTFGQGTKVEIERTVAAPSVFIFPPSDEQLKSGTASVVCLLNNFYPREAKVQWKVDNALQSGNSQESVTEQDSKDSTYSLSSTLTLSKADYEKHKVYACEVTHQGLSSPVTKSFNRGEC | 139 | 105 | 111 | 55.3
GpH7-A5/GpH7-B3 variant P329_09D/GpL16-k0 (antibody, human IgG1, kappa, He Ab: heterodimerized IgG1, one H chain mutated) heavy 1: not shown heavy 2: not shown light: DIVMTQSPLSLPVTPGEPASISCQASESLVHSNRNTYLHWYLQKPGQSPQLLIYKVSNRFSGVPDRFSGSGSGTDFTLKISRVEAEDVGVYYCSQNTHVPPTFGQGTKVEIERTVAAPSVFIFPPSDEQLKSGTASVVCLLNNFYPREAKVQWKVDNALQSGNSQESVTEQDSKDSTYSLSSTLTLSKADYEKHKVYACEVTHQGLSSPVTKSFNRGEC | 60.4 | 80.1 | 76 | 57.1
GpH7-A5/GpH7-B3 variant L328_06M/GpL16-k0 (antibody, human IgG1, kappa, He Ab: heterodimerized IgG1, one H chain mutated) heavy 1: not shown heavy 2: not shown light: DIVMTQSPLSLPVTPGEPASISCQASESLVHSNRNTYLHWYLQKPGQSPQLLIYKVSNRFSGVPDRFSGSGSGTDFTLKISRVEAEDVGVYYCSQNTHVPPTFGQGTKVEIERTVAAPSVFIFPPSDEQLKSGTASVVCLLNNFYPREAKVQWKVDNALQSGNSQESVTEQDSKDSTYSLSSTLTLSKADYEKHKVYACEVTHQGLSSPVTKSFNRGEC | 176 | 101 | 148 | 122
GpH7-A5/GpH7-B3 variant L328_15Y/GpL16-k0 (antibody, human IgG1, kappa, He Ab: heterodimerized IgG1, one H chain mutated) heavy 1: not shown heavy 2: not shown light: DIVMTQSPLSLPVTPGEPASISCQASESLVHSNRNTYLHWYLQKPGQSPQLLIYKVSNRFSGVPDRFSGSGSGTDFTLKISRVEAEDVGVYYCSQNTHVPPTFGQGTKVEIERTVAAPSVFIFPPSDEQLKSGTASVVCLLNNFYPREAKVQWKVDNALQSGNSQESVTEQDSKDSTYSLSSTLTLSKADYEKHKVYACEVTHQGLSSPVTKSFNRGEC | 240 | 104 | 174 | 106
GpH7-A5/GpH7-B3 variant N325_13S/GpL16-k0 (antibody, human IgG1, kappa, He Ab: heterodimerized IgG1, one H chain mutated) heavy 1: not shown heavy 2: not shown light: DIVMTQSPLSLPVTPGEPASISCQASESLVHSNRNTYLHWYLQKPGQSPQLLIYKVSNRFSGVPDRFSGSGSGTDFTLKISRVEAEDVGVYYCSQNTHVPPTFGQGTKVEIERTVAAPSVFIFPPSDEQLKSGTASVVCLLNNFYPREAKVQWKVDNALQSGNSQESVTEQDSKDSTYSLSSTLTLSKADYEKHKVYACEVTHQGLSSPVTKSFNRGEC | 198 | 102 | 137 | 83
GpH7-A5/GpH7-B3 variant L328_07I/GpL16-k0 (antibody, human IgG1, kappa, He Ab: heterodimerized IgG1, one H chain mutated) heavy 1: not shown heavy 2: not shown light: DIVMTQSPLSLPVTPGEPASISCQASESLVHSNRNTYLHWYLQKPGQSPQLLIYKVSNRFSGVPDRFSGSGSGTDFTLKISRVEAEDVGVYYCSQNTHVPPTFGQGTKVEIERTVAAPSVFIFPPSDEQLKSGTASVVCLLNNFYPREAKVQWKVDNALQSGNSQESVTEQDSKDSTYSLSSTLTLSKADYEKHKVYACEVTHQGLSSPVTKSFNRGEC | 200 | 102 | 160 | 111
GpH7-A5/GpH7-B3 variant L328_14T/GpL16-k0 (antibody, human IgG1, kappa, He Ab: heterodimerized IgG1, one H chain mutated) heavy 1: not shown heavy 2: not shown light: DIVMTQSPLSLPVTPGEPASISCQASESLVHSNRNTYLHWYLQKPGQSPQLLIYKVSNRFSGVPDRFSGSGSGTDFTLKISRVEAEDVGVYYCSQNTHVPPTFGQGTKVEIERTVAAPSVFIFPPSDEQLKSGTASVVCLLNNFYPREAKVQWKVDNALQSGNSQESVTEQDSKDSTYSLSSTLTLSKADYEKHKVYACEVTHQGLSSPVTKSFNRGEC | 176 | 103 | 153 | 138
GpH7-A5/GpH7-B3 variant L328_02A/GpL16-k0 (antibody, human IgG1, kappa, He Ab: heterodimerized IgG1, one H chain mutated) heavy 1: not shown heavy 2: not shown light: DIVMTQSPLSLPVTPGEPASISCQASESLVHSNRNTYLHWYLQKPGQSPQLLIYKVSNRFSGVPDRFSGSGSGTDFTLKISRVEAEDVGVYYCSQNTHVPPTFGQGTKVEIERTVAAPSVFIFPPSDEQLKSGTASVVCLLNNFYPREAKVQWKVDNALQSGNSQESVTEQDSKDSTYSLSSTLTLSKADYEKHKVYACEVTHQGLSSPVTKSFNRGEC | 180 | 101 | 150 | 154
GpH7-A5/GpH7-B3 variant L328_16H/GpL16-k0 (antibody, human IgG1, kappa, He Ab: heterodimerized IgG1, one H chain mutated) heavy 1: not shown heavy 2: not shown light: DIVMTQSPLSLPVTPGEPASISCQASESLVHSNRNTYLHWYLQKPGQSPQLLIYKVSNRFSGVPDRFSGSGSGTDFTLKISRVEAEDVGVYYCSQNTHVPPTFGQGTKVEIERTVAAPSVFIFPPSDEQLKSGTASVVCLLNNFYPREAKVQWKVDNALQSGNSQESVTEQDSKDSTYSLSSTLTLSKADYEKHKVYACEVTHQGLSSPVTKSFNRGEC | 100 | 98.5 | 106 | 84.5
GpH7-A5/GpH7-B3 variant L328_13S/GpL16-k0 (antibody, human IgG1, kappa, He Ab: heterodimerized IgG1, one H chain mutated) heavy 1: not shown heavy 2: not shown light: DIVMTQSPLSLPVTPGEPASISCQASESLVHSNRNTYLHWYLQKPGQSPQLLIYKVSNRFSGVPDRFSGSGSGTDFTLKISRVEAEDVGVYYCSQNTHVPPTFGQGTKVEIERTVAAPSVFIFPPSDEQLKSGTASVVCLLNNFYPREAKVQWKVDNALQSGNSQESVTEQDSKDSTYSLSSTLTLSKADYEKHKVYACEVTHQGLSSPVTKSFNRGEC | 186 | 101 | 150 | 146
GpH7-A5/GpH7-B3 variant L328_19Q/GpL16-k0 (antibody, human IgG1, kappa, He Ab: heterodimerized IgG1, one H chain mutated) heavy 1: not shown heavy 2: not shown light: DIVMTQSPLSLPVTPGEPASISCQASESLVHSNRNTYLHWYLQKPGQSPQLLIYKVSNRFSGVPDRFSGSGSGTDFTLKISRVEAEDVGVYYCSQNTHVPPTFGQGTKVEIERTVAAPSVFIFPPSDEQLKSGTASVVCLLNNFYPREAKVQWKVDNALQSGNSQESVTEQDSKDSTYSLSSTLTLSKADYEKHKVYACEVTHQGLSSPVTKSFNRGEC | 131 | 104 | 115 | 103
GpH7-A5/GpH7-B3 variant L328_03V/GpL16-k0 (antibody, human IgG1, kappa, He Ab: heterodimerized IgG1, one H chain mutated) heavy 1: not shown heavy 2: not shown light: DIVMTQSPLSLPVTPGEPASISCQASESLVHSNRNTYLHWYLQKPGQSPQLLIYKVSNRFSGVPDRFSGSGSGTDFTLKISRVEAEDVGVYYCSQNTHVPPTFGQGTKVEIERTVAAPSVFIFPPSDEQLKSGTASVVCLLNNFYPREAKVQWKVDNALQSGNSQESVTEQDSKDSTYSLSSTLTLSKADYEKHKVYACEVTHQGLSSPVTKSFNRGEC | 157 | 103 | 150 | 116
GpH7-A5/GpH7-B3 variant L328_18N/GpL16-k0 (antibody, human IgG1, kappa, He Ab: heterodimerized IgG1, one H chain mutated) heavy 1: not shown heavy 2: not shown light: DIVMTQSPLSLPVTPGEPASISCQASESLVHSNRNTYLHWYLQKPGQSPQLLIYKVSNRFSGVPDRFSGSGSGTDFTLKISRVEAEDVGVYYCSQNTHVPPTFGQGTKVEIERTVAAPSVFIFPPSDEQLKSGTASVVCLLNNFYPREAKVQWKVDNALQSGNSQESVTEQDSKDSTYSLSSTLTLSKADYEKHKVYACEVTHQGLSSPVTKSFNRGEC | 101 | 101 | 76.4 | 80.6
